This is an account of results in PMC5818262 (ACS chemical biology, 2012).

Where two headings read alike, the source gives them in different places.

In one series the test system is Cit1. Nature of the series: steady-state initial rates, Hill equation fit. It counts as biochemical, Streptantibioticus cattleyicolor. The settings on record: read-out: K0.5.
In another series the test system is Cit2. Nature of the series: steady-state initial rates, Hill equation fit. In kind it is biochemical, Streptantibioticus cattleyicolor. As to conditions: read-out: K0.5.
A further series deals with ACS (S. cattleya) (Streptantibioticus cattleyicolor, UniProt F8K1P4). It counts as biochemical.
The target of a further series is AckA (S. cattleya) (Streptantibioticus cattleyicolor, UniProt G8X369). It counts as biochemical.
The next series deals with GltA (Escherichia coli, UniProt P0ABH7). Put plainly: steady-state initial rates, Hill equation fit. It counts as biochemical. As to conditions: read-out: K0.5.
Series [1] deals with CC(=O)SCCNC(=O)CCNC(=O)[C@H](O)C(C)(C)COP(=O)(O)OP(=O)(O)OC[C@H]1O[C@@H](n2cnc3c(N)ncnc32)[C@H](O)[C@@H]1OP(=O)(O)O. Nature of the series: steady-state initial rates, Hill equation fit. It counts as biochemical, Escherichia coli.
Substrate in the series “purified protein”: CC(=O)O
Nature of the series: purified protein.

Substrate in series [2]: CC(=O)SCCNC(=O)CCNC(=O)[C@H](O)C(C)(C)COP(=O)(O)OP(=O)(O)OC[C@H]1O[C@@H](n2cnc3c(N)ncnc32)[C@H](O)[C@@H]1OP(=O)(O)O
Nature of the series: steady-state initial rates, Hill equation fit. In kind it is biochemical, Streptomyces coelicolor.

Substrate in series [3]: CC(C)(COP(=O)(O)OP(=O)(O)OC[C@H]1O[C@@H](n2cnc3c(N)ncnc32)[C@H](O)[C@@H]1OP(=O)(O)O)[C@@H](O)C(=O)NCCC(=O)NCCSC(=O)CF
Put plainly: steady-state initial rates, Hill equation fit. In kind it is biochemical, Streptomyces coelicolor.

Chain of GltA (P0ABH7 whole entry): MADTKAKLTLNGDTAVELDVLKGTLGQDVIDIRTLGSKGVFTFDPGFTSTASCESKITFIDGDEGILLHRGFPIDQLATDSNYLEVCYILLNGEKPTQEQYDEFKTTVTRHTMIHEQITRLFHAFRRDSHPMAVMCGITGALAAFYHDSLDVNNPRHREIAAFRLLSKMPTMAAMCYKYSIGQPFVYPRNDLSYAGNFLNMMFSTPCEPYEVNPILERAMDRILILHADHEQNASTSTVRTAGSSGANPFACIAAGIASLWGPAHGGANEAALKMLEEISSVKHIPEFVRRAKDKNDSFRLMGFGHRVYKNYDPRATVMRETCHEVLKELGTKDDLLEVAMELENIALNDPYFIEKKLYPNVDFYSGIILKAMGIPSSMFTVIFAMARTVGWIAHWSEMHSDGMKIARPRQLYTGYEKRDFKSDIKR

Regarding `O=C(O)CC(=O)C(=O)O` [Oxaloacetate], the results for the Km in the series with Cit1 and in the series on Cit2 were 130 ± 20 µM and 3.8 ± 0.4 µM, respectively.
With `O=C(O)CF` [compound 6, Fluoroacetate], the results for the Km at ACS (S. cattleya) and at AckA (S. cattleya) were 52000 µM and 5700 µM, respectively.
As to `CC(C)(COP(=O)(O)OP(=O)(O)OC[C@H]1O[C@@H](n2cnc3c(N)ncnc32)[C@H](O)[C@@H]1OP(=O)(O)O)[C@@H](O)C(=O)NCCC(=O)NCCSC(=O)CF` [compound 9, Fluoroacetyl-CoA], the Km in the series with Cit1 is 16 ± 4 µM; at GltA it was 5.1 ± 0.3 µM; with Cit2 it was 0.98 ± 0.05 µM.
Take `CC(=O)SCCNC(=O)CCNC(=O)[C@H](O)C(C)(C)COP(=O)(O)OP(=O)(O)OC[C@H]1O[C@@H](n2cnc3c(N)ncnc32)[C@H](O)[C@@H]1OP(=O)(O)O` [compound 10, Acetyl-CoA]: the Km was 15 ± 2 µM in the series with Cit1 and 4.9 ± 0.4 µM with Cit2.
A word on the kcat: it is the maximal rate divided by the concentration of active sites. As usually defined, the kcat/Km is the second-order rate constant that governs catalysis at low substrate concentration. As to GltA (Escherichia coli K-12), in [1], the K0.5 was 170 ± 60 µM, the kcat turned out to be 80 ± 10 s⁻¹ and the kcat/Km came to 500000 ± 200000 M⁻¹ s⁻¹.

B1: AckA (E. coli) (Escherichia coli K-12) (protein)
chain: MSSKLVLVLNCGSSSLKFAIIDAVNGEEYLSGLAECFHLPEARIKWKMDGNKQEAALGAGAAHSEALNFIVNTILAQKPELSAQLTAIGHRIVHGGEKYTSSVVIDESVIQGIKDAASFAPLHNPAHLIGIEEALKSFPQLKDKNVAVFDTAFHQTMPEESYLYALPYNLYKEHGIRRYGAHGTSHFYVTQEAAKMLNKPVEELNIITCHLGNGGSVSAIRNGKCVDTSMGLTPLEGLVMGTRSGDIDPAIIFHLHDTLGMSVDAINKLLTKESGLLGLTEVTSDCRYVEDNYATKEDAKRAMDVYCHRLAKYIGAYTALMDGRLDAVVFTGGIGENAAMVRELSLGKLGVLGFEVDHERNLAARFGKSGFINKEGTRPAVVIPTNEELVIAQDASRLTA
Consider B1, for which, in the series “purified protein”, the Km entry is “(2.7 ± 0.2) × 10^4 μM”, the kcat is 1340 s⁻¹ and the catalytic efficiency (kcat/Km) was 50000 M⁻¹ s⁻¹.

B2: CitA (Streptomyces coelicolor A3(2)) (protein)
chain: MSDNSVVLRYGDGEYTYPVIDSTVGDKGFDIGKLRAQTGLVTLDSGYGNTAAYKSAITYLDGEAGILRYRGYPIEQLAERSSFVEVAYLLINGELPTVDELSAFKGEITQHTLLHEDVKNFYKGFPRDAHPMAMLSSVVSALSTFYQDSHNPFDERQRNLSTIRLLAKLPTIAAYAYKKSIGHPFVYPANNLGYVENFLRMTFSVPAQEYELDPTVVAALDKLLILHADHEQNCSTSTVRLVGSSQANMFASISAGINALWGPLHGGANQSVLEMLEGIRDAGGDVDSFIRKVKNKEDGVRLMGFGHRVYKNFDPRAKIIKAAAHDVLSALGKSDELLDIALKLEEHALSDDYFVSRSLYPNVDFYTGLIYRAMGFPTEMFTVLFALGRLPGWIAQWHEMIKEPGSRIGRPRQIYTGVVERDFVPVEER
With B2, in series [2], the K0.5 came out at 47 ± 2 µM, the kcat worked out at 17.9 ± 0.4 s⁻¹ and the specificity constant (kcat/Km) amounted to 380000 ± 10000 M⁻¹ s⁻¹. Besides, in [3], the K0.5 was found to be 15.4 ± 0.8 µM and the specificity constant (kcat/Km) was found to be 126000 ± 8000 M⁻¹ s⁻¹.
